From publication PMC6697681, “The predominance of nucleotidyl activation in bacterial phosphonate biosynthesis” (Nature Communications, 2019)

Substrate: NCCP(=O)(O)O
Test: purified protein
Settings: saturating CTP (4 mM), 7 mM MgCl2, room temperature
Text: coupled pyrophosphate release assay (EnzChek, MESG/PNP), initial rates on Tde-PntC (Tde1415)

B1: Tde-PntC (Tde1415) (Treponema denticola ATCC 35405) (protein)
chain: MIKQAVILAGGLGSRLKDKTKTMPKGFLEIGGTAIVEQSVQKLLAHGIEKIVIGTGHCNEYYDNLAKKYPAIITVKNENYANTGSMGTLEVCASFVNESFLLLESDLIYDSAGLFSLINDERKNLILASGATKSGDEVYLEADEKNCLTGLSKNRDALKNIFGELVGITKLTKSTLDKMCAYAKIHHSDLPKMEYEHALLEAAKTIPVAIKRIEYFVWREIDNEDHLEMAVKNIYPHIVENEKLRAVRREVLLNPGPATTTDSVKYAQVSADICPREKAFGDLMQWLCDELKLFALASETNPDEYETVMFGCSGTGADEVMVSSCVPDTGRLLVIDNGSYGARMAKIADIYKIPMDIFKSSTYEPLDLQKLEAEFATKKYTHLACVYHETTTGLLNPLHIICPMAKKYGMVTIVDAVSAYCGMPMDLKSLGIDFMASTSNKNIQGMAGVGFVICNKAELEKTKDYPMRNYYLNLYDQYAYFAKTHQTRFTPPVQTMYALRQAVLETKQETVQKRYERYTACWNILVAAIKKLGLKMLVKEEHQSHFITAILEPETPKYSFEALHDFAAEHSFTIYPGKLGNIDTFRIANIGDIQPEEMRRFTVKLKEYMNGIGVGV
- Km: 16 ± 5 µM
